What was measured:
Conditions in all cases: 20 nM; 72 h
MCF10A [1] = test: 5+ nucleoli phenotype percent effect (relative to siNT 0% and siKIF11 100%); higher = more cells with five or more nucleoli
Method: (§1)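 After 72 h, cells were fixed and stained with Hoechst and anti-fibrillarin, and nucleoli per nucleus were counted with CellProfiler. Values are plate-adjusted percent effect for the one-nucleolus and 5+ nucleoli phenotypes, normalised to siNT (0%) and to the positive controls siNOL11 or siKIF11 (100%), as the mean of biological triplicates. Percent viability is the nuclei count relative to siNT.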

MCF10A [2] = test: one-nucleolus phenotype percent effect (relative to siNT 0% and siNOL11 100%); higher = more cells with one nucleolus (ribosome biogenesis inhibition)
Method: as §1

MCF10A [3] = test: percent viability (nuclei count relative to siNT); higher = more viable cells
Method: as §1

| Sequence | 5+ nucleoli phenotype percent effect (MCF10A [1]) | one-nucleolus phenotype percent effect (MCF10A [2]) | percent viability (MCF10A [3]) |
| --- | --- | --- | --- |
| CGGGGCCAUGGAGCAGCCUGUGU [hsa-miR-6762-5p] | 28.2% | -11.4% | 86.4% |
| CGGGGCCGUAGCACUGUCUGAGA [hsa-miR-128-1-5p] | 21.2% | 22.5% | 26.1% |
| CGGGGCGGCAGGGGCCUC [hsa-miR-3196] | -24.6% | 66% | 13.7% |
| CGGGGGCGGGGCCGAAGCGCG [hsa-miR-1237-5p] | 45.4% | -22% | 85.4% |
| CGGGGUCGGCGGCGACGUG [hsa-miR-7704] | 9.03% | -0.45% | 38.3% |
| CGGGGUGGGUGAGGUCGGGC [hsa-miR-4651] | -1.6% | 2.27% | 33.5% |
| CGGGGUUUUGAGGGCGAGAUGA [hsa-miR-193b-5p] | -32.1% | 25.4% | 46.7% |
| CGGGUAGAGAGGGCAGUGGGAGG [hsa-miR-197-5p] | 48.2% | -25.5% | 44.8% |
| CGGGUGGAUCACGAUGCAAUUU [hsa-miR-363-5p] | 161% | -21.2% | 4.57% |
| CGGGUGGGAGCAGAUCUUAUUGAG [hsa-miR-6766-5p] | 56.1% | -20.9% | 76.6% |
| CGGUGAGCGCUCGCUGGC [hsa-miR-4792] | -30.2% | 21.1% | 36.6% |
| CGGUGGACUGGAGUGGGUGG [hsa-miR-8071] | -15.7% | 22.4% | 9.26% |
| CGUCAACACUUGCUGGUUUCCU [hsa-miR-505-3p] | -7.84% | 22.4% | 33.8% |
| CGUCCCACCCCCCACUCCUGU [hsa-miR-4433-5p] | 25.6% | -1.75% | 40.9% |
| CGUCCCGGGGCUGCGCGAGGCA [hsa-miR-4449] | -7.62% | -6.92% | 75.7% |
| CGUCUUACCCAGCAGUGUUUGG [hsa-miR-200c-5p] | -1.15% | -5.6% | 79% |
| CGUGCCACCCUUUUCCCCAG [hsa-miR-1227-3p] | -2.5% | 6.65% | 93.4% |
| CGUGGAGGACGAGGAGGAGGC [hsa-miR-7847-3p] | -7.84% | 4.16% | 67.5% |
| CGUGGAUAUUCCUUCUAUGUUU [hsa-miR-376b-5p] | -14% | 9.58% | 22% |
| CGUGGAUUGUCUGGAUGCAU [hsa-miR-8056] | -25.1% | 12.9% | 41.8% |
| CGUGUAUUUGACAAGCUGAGUU [hsa-miR-223-5p] | -35% | 31.4% | 20% |
| CGUGUCUUCUGGCUUGAU [hsa-miR-4711-3p] | -36.9% | 59.2% | 17.8% |
| CGUGUUCACAGCGGACCUUGAU [hsa-miR-124-5p] | -28.6% | 6.24% | 77.3% |
| CUAAGAAGUUGACUGAAG [hsa-miR-3653] | -37.5% | 49.1% | 42% |
